Test results from publication PMC10786891, “Massively parallel profiling of RNA-targeting CRISPR-Cas13d”.

T1: EsCas13d, nuclease-dead (Eubacterium siraeum, UniProt B0MS50, R295A;H300A;R849A;H854A)
T1 sequence: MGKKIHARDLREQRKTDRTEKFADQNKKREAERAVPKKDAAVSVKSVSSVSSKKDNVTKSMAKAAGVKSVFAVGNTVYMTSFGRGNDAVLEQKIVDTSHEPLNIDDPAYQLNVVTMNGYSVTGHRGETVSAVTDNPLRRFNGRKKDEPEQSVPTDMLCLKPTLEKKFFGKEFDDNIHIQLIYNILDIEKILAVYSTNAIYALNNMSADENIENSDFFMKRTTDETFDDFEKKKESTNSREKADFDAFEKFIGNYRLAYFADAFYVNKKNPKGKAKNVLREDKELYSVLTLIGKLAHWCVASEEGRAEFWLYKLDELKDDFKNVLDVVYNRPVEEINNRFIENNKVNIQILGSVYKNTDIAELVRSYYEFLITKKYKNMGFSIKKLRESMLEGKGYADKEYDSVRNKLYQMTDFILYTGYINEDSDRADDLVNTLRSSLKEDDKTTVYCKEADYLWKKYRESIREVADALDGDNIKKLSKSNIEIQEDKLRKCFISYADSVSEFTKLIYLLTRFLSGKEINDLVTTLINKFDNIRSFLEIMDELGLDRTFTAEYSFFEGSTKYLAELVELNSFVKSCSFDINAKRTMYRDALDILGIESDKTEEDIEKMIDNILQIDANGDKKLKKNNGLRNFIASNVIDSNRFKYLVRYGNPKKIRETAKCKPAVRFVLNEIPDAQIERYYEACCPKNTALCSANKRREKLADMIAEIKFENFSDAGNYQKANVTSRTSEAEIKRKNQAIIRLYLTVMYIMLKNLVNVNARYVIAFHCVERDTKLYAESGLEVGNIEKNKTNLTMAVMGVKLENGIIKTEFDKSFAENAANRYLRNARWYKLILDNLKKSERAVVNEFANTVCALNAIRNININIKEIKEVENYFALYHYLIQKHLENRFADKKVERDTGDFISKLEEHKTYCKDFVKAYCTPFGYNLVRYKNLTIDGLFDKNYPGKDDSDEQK

B1: target 1 U8A,G13U (mixed)
RNA 1: CACCCGUGCAAAAAUGCAGGGGUCUAAAACUGAGCGGAUAACCUCUCUAUGG
RNA 2: GGGAAUGGAUCCACAUCUACGAAUUCGUACCAUAGAGAUGUUAACCGCUCACCGAGAUCGGAAGAGCACACGU
B2: target 1 insU 3' of 16,insU 3' of 16 (mixed)
RNA 1: CACCCGUGCAAAAAUGCAGGGGUCUAAAACUGAGCGGAUAACCUCUCUAUGG
RNA 2: GGGAAUGGAUCCACAUCUACGAAUUCGUACCAUAGAUUGAGGUUAUCCGCUCACCGAGAUCGGAAGAGCACACGU
B3: target 1 insU 3' of 15,insU 3' of 2 (mixed)
RNA 1: CACCCGUGCAAAAAUGCAGGGGUCUAAAACUGAGCGGAUAACCUCUCUAUGG
RNA 2: GGGAAUGGAUCCACAUCUACGAAUUCGUACCAUAGAGUAGGUUAUCCGCUCUACCGAGAUCGGAAGAGCACACGU
B4: target 1 G12C (mixed)
RNA 1: CACCCGUGCAAAAAUGCAGGGGUCUAAAACUGAGCGGAUAACCUCUCUAUGG
RNA 2: GGGAAUGGAUCCACAUCUACGAAUUCGUACCAUAGAGAGCUUAUCCGCUCACCGAGAUCGGAAGAGCACACGU
B5: target 1 complement block 3-12 (mixed)
RNA 1: CACCCGUGCAAAAAUGCAGGGGUCUAAAACUGAGCGGAUAACCUCUCUAUGG
RNA 2: GGGAAUGGAUCCACAUCUACGAAUUCGUACCAUAGAGAGCAAUAGGCGACACCGAGAUCGGAAGAGCACACGU
B6: target 1 insG 3' of 18,insG 3' of 1 (mixed)
RNA 1: CACCCGUGCAAAAAUGCAGGGGUCUAAAACUGAGCGGAUAACCUCUCUAUGG
RNA 2: GGGAAUGGAUCCACAUCUACGAAUUCGUACCAUAGGAGAGGUUAUCCGCUCAGCCGAGAUCGGAAGAGCACACGU
B7: target 1 insG 3' of 6,insG 3' of 3 (mixed)
RNA 1: CACCCGUGCAAAAAUGCAGGGGUCUAAAACUGAGCGGAUAACCUCUCUAUGG
RNA 2: GGGAAUGGAUCCACAUCUACGAAUUCGUACCAUAGAGAGGUUAUCCGGCUGCACCGAGAUCGGAAGAGCACACGU
B8: target 1 C6G,A9U (mixed)
RNA 1: CACCCGUGCAAAAAUGCAGGGGUCUAAAACUGAGCGGAUAACCUCUCUAUGG
RNA 2: GGGAAUGGAUCCACAUCUACGAAUUCGUACCAUAGAGAGGUUUUCGGCUCACCGAGAUCGGAAGAGCACACGU
B9: target 1 A9C,C22U (mixed)
RNA 1: CACCCGUGCAAAAAUGCAGGGGUCUAAAACUGAGCGGAUAACCUCUCUAUGG
RNA 2: GGGAAUGGAUCCACAUCUACGAAUUCGUAUCAUAGAGAGGUUCUCCGCUCACCGAGAUCGGAAGAGCACACGU
B10: target 1 insG 3' of 18,insC 3' of 1 (mixed)
RNA 1: CACCCGUGCAAAAAUGCAGGGGUCUAAAACUGAGCGGAUAACCUCUCUAUGG
RNA 2: GGGAAUGGAUCCACAUCUACGAAUUCGUACCAUAGGAGAGGUUAUCCGCUCACCCGAGAUCGGAAGAGCACACGU
B11: target 1 insA 3' of 15,insC 3' of 12 (mixed)
RNA 1: CACCCGUGCAAAAAUGCAGGGGUCUAAAACUGAGCGGAUAACCUCUCUAUGG
RNA 2: GGGAAUGGAUCCACAUCUACGAAUUCGUACCAUAGAGAAGGCUUAUCCGCUCACCGAGAUCGGAAGAGCACACGU
B12: target 1 insA 3' of 7,insA 3' of 3 (mixed)
RNA 1: CACCCGUGCAAAAAUGCAGGGGUCUAAAACUGAGCGGAUAACCUCUCUAUGG
RNA 2: GGGAAUGGAUCCACAUCUACGAAUUCGUACCAUAGAGAGGUUAUCACGCUACACCGAGAUCGGAAGAGCACACGU
B13: target 1 insC 3' of 22,insU 3' of 1 (mixed)
RNA 1: CACCCGUGCAAAAAUGCAGGGGUCUAAAACUGAGCGGAUAACCUCUCUAUGG
RNA 2: GGGAAUGGAUCCACAUCUACGAAUUCGUACCCAUAGAGAGGUUAUCCGCUCAUCCGAGAUCGGAAGAGCACACGU
B14: target 1 G5A,G17U (mixed)
RNA 1: CACCCGUGCAAAAAUGCAGGGGUCUAAAACUGAGCGGAUAACCUCUCUAUGG
RNA 2: GGGAAUGGAUCCACAUCUACGAAUUCGUACCAUAUAGAGGUUAUCCACUCACCGAGAUCGGAAGAGCACACGU
B15: target 1 insC 3' of 22,insC 3' of 1 (mixed)
RNA 1: CACCCGUGCAAAAAUGCAGGGGUCUAAAACUGAGCGGAUAACCUCUCUAUGG
RNA 2: GGGAAUGGAUCCACAUCUACGAAUUCGUACCCAUAGAGAGGUUAUCCGCUCACCCGAGAUCGGAAGAGCACACGU
B16: target 1 insU 3' of 15,insA 3' of 13 (mixed)
RNA 1: CACCCGUGCAAAAAUGCAGGGGUCUAAAACUGAGCGGAUAACCUCUCUAUGG
RNA 2: GGGAAUGGAUCCACAUCUACGAAUUCGUACCAUAGAGUAGAGUUAUCCGCUCACCGAGAUCGGAAGAGCACACGU
B17: target 1 insU 3' of 4,insC 3' of 3 (mixed)
RNA 1: CACCCGUGCAAAAAUGCAGGGGUCUAAAACUGAGCGGAUAACCUCUCUAUGG
RNA 2: GGGAAUGGAUCCACAUCUACGAAUUCGUACCAUAGAGAGGUUAUCCGCUUCCACCGAGAUCGGAAGAGCACACGU
B18: target 1 A20U,C22A (mixed)
RNA 1: CACCCGUGCAAAAAUGCAGGGGUCUAAAACUGAGCGGAUAACCUCUCUAUGG
RNA 2: GGGAAUGGAUCCACAUCUACGAAUUCGUAACUUAGAGAGGUUAUCCGCUCACCGAGAUCGGAAGAGCACACGU
B19: target 1 insC 3' of 22,insG 3' of 1 (mixed)
RNA 1: CACCCGUGCAAAAAUGCAGGGGUCUAAAACUGAGCGGAUAACCUCUCUAUGG
RNA 2: GGGAAUGGAUCCACAUCUACGAAUUCGUACCCAUAGAGAGGUUAUCCGCUCAGCCGAGAUCGGAAGAGCACACGU
B20: target 1 insA 3' of 19,insU 3' of 13 (mixed)
RNA 1: CACCCGUGCAAAAAUGCAGGGGUCUAAAACUGAGCGGAUAACCUCUCUAUGG
RNA 2: GGGAAUGGAUCCACAUCUACGAAUUCGUACCAUAAGAGAGUGUUAUCCGCUCACCGAGAUCGGAAGAGCACACGU
B21: target 1 insC 3' of 18,insU 3' of 7 (mixed)
RNA 1: CACCCGUGCAAAAAUGCAGGGGUCUAAAACUGAGCGGAUAACCUCUCUAUGG
RNA 2: GGGAAUGGAUCCACAUCUACGAAUUCGUACCAUACGAGAGGUUAUCUCGCUCACCGAGAUCGGAAGAGCACACGU
B22: target 1 insA 3' of 15,insU 3' of 12 (mixed)
RNA 1: CACCCGUGCAAAAAUGCAGGGGUCUAAAACUGAGCGGAUAACCUCUCUAUGG
RNA 2: GGGAAUGGAUCCACAUCUACGAAUUCGUACCAUAGAGAAGGUUUAUCCGCUCACCGAGAUCGGAAGAGCACACGU
B23: target 1 insU 3' of 9,insG 3' of 1 (mixed)
RNA 1: CACCCGUGCAAAAAUGCAGGGGUCUAAAACUGAGCGGAUAACCUCUCUAUGG
RNA 2: GGGAAUGGAUCCACAUCUACGAAUUCGUACCAUAGAGAGGUUAUUCCGCUCAGCCGAGAUCGGAAGAGCACACGU
B24: target 1 A1C,G12C (mixed)
RNA 1: CACCCGUGCAAAAAUGCAGGGGUCUAAAACUGAGCGGAUAACCUCUCUAUGG
RNA 2: GGGAAUGGAUCCACAUCUACGAAUUCGUACCAUAGAGAGCUUAUCCGCUCCCCGAGAUCGGAAGAGCACACGU
B25: target 1 insG 3' of 9,insA 3' of 8 (mixed)
RNA 1: CACCCGUGCAAAAAUGCAGGGGUCUAAAACUGAGCGGAUAACCUCUCUAUGG
RNA 2: GGGAAUGGAUCCACAUCUACGAAUUCGUACCAUAGAGAGGUUAGUACCGCUCACCGAGAUCGGAAGAGCACACGU
B26: target 1 insC 3' of 15,insA 3' of 5 (mixed)
RNA 1: CACCCGUGCAAAAAUGCAGGGGUCUAAAACUGAGCGGAUAACCUCUCUAUGG
RNA 2: GGGAAUGGAUCCACAUCUACGAAUUCGUACCAUAGAGCAGGUUAUCCGACUCACCGAGAUCGGAAGAGCACACGU
B27: target 1 insG 3' of 16,insU 3' of 9 (mixed)
RNA 1: CACCCGUGCAAAAAUGCAGGGGUCUAAAACUGAGCGGAUAACCUCUCUAUGG
RNA 2: GGGAAUGGAUCCACAUCUACGAAUUCGUACCAUAGAGGAGGUUAUUCCGCUCACCGAGAUCGGAAGAGCACACGU
B28: target 1 A1G,G12C (mixed)
RNA 1: CACCCGUGCAAAAAUGCAGGGGUCUAAAACUGAGCGGAUAACCUCUCUAUGG
RNA 2: GGGAAUGGAUCCACAUCUACGAAUUCGUACCAUAGAGAGCUUAUCCGCUCGCCGAGAUCGGAAGAGCACACGU

Molecular target: T1, EsCas13d, nuclease-dead
Assay: crRNA (strand 1, pre-loaded); Mg2+; 40 mM Tris-HCl pH 7.5, 150 mM NaCl, 6 mM MgCl2, 1 mM DTT, 0.1% Tween-20, 0.2 mg/ml BSA; 25 C; 10 min per concentration, then washed
Details: tags: His6-TwinStrep-SUMO cleaved; N-terminal SNAP kept (SNAP-Surface 488); label: 3' end held by stalled T7 RNA polymerase

Binder	Kd
B1	53 ± 8 nM
B2	38 ± 5 nM
B3	11.2 ± 0.6 nM
B4	8.3 ± 0.7 nM
B5	14.4 ± 0.5 nM
B6	55 ± 10 nM
B7	7.3 ± 0.5 nM
B8	6.92 ± 0.27 nM
B9	54 ± 12 nM
B10	52 ± 4 nM
B11	31 ± 6 nM
B12	5.5 ± 0.4 nM
B13	20.6 ± 1.9 nM
B14	~100 nM
B15	17.2 ± 1 nM
B16	10.2 ± 0.7 nM
B17	76 ± 22 nM
B18	23.9 ± 2.8 nM
B19	15.3 ± 1.2 nM
B20	35 ± 13 nM
B21	67 ± 5 nM
B22	4.9 ± 0.4 nM
B23	18.9 ± 2.5 nM
B24	19 ± 2.1 nM
B25	19.6 ± 1 nM
B26	6.6 ± 0.5 nM
B27	28.9 ± 2.2 nM
B28	12.2 ± 0.9 nM
